Assay results as given in publication PMC11506546, “Tropomyosin Isoforms Segregate into Distinct Clusters on Single Actin Filaments” (Biomolecules, 2024).
Blank lines part the entries; values can stand above or below the binder they belong to.

What was measured:
Details in all cases: both partners purified
[1] = target: rabbit skeletal-muscle F-actin (rabbit, UniProt P68135 1-377); experiment: co-sedimentation; 0.2-3.5 µM tropomyosin with 3 µM F-actin in T buffer (150 mM NaCl, 10 mM Tris-HCl pH 7.5, 2 mM MgCl2), 50 µL, 1 h at room temperature; 670,000 x g, 20 °C, 30 min; SDS-PAGE densitometry; Hill equation fit; apparent Kd
[2] = target: α-actin filament (muscle actin, polymerized from G-actin) (UniProt P68135 1-377); experiment: TIRF microscopy of tropomyosin-decorated single actin filaments; control experiments: the same Tpm isoform labeled with AF488 and with AF568 (0.015 µM of each) mixed with 1 µM G-actin in D buffer, polymerized with 50 mM NaCl for 5-10 min, 10% PEG 300; decorated filaments captured on PLL-PEG/BSA coverslips in microfluidic channels, washed with TIR50 buffer
[3] = target: β-actin filament (cytoskeletal actin, polymerized from G-actin) (UniProt P60709 1-375); experiment: as above

Kd [1]: 1210 nM
B1: Tpm1.6 AF488 (Tpm1.6 labeled at Cys-190 with Alexa Fluor 488 C5 maleimide) (natural protein)
chain: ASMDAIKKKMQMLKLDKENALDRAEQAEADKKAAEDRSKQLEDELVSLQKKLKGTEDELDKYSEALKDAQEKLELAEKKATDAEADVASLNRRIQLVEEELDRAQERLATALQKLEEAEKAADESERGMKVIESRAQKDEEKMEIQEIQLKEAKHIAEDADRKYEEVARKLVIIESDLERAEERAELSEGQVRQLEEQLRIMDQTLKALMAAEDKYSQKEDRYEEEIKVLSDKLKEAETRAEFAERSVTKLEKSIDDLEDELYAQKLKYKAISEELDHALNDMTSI
modifications: Alexa Fluor 488 C5 maleimide on Cys-190 (monomer labeling ratio approximately 95%)

Kd [1]: 2370 nM
ratio of Tpm in Ch1 (red, AF568)/Ch2 (green, AF488) on the filament, median [2]: 0.7
ratio of Tpm in Ch1 (red, AF568)/Ch2 (green, AF488) on the filament, median [3]: 0.7
B2: Tpm1.6 AF568 (Tpm1.6 labeled at Cys-190 with Alexa Fluor 568 C5 maleimide) (natural protein)
chain: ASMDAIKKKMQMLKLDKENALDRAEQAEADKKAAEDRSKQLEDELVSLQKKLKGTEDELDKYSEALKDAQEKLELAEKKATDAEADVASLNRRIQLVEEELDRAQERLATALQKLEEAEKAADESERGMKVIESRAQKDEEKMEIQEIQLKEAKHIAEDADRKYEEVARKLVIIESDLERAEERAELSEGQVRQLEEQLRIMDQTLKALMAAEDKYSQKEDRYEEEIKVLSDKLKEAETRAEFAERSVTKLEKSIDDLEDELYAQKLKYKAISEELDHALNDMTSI
modifications: Alexa Fluor 568 C5 maleimide on Cys-190 (monomer labeling ratio approximately 95%)
